# Measurements reported in the supplement of paper PMC10567573.
# B1: CHIT1 (parent)
# chain: CSWKGATKQRIQDQKVPYIFRDNQ
# Variants of: B1
# Assay: protein stability index of a GFP-peptide fusion (GPS, HEK-293T) (PSI 1-6); higher = more stable
# Settings: c terminus: a fixed tail appended
# 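Also: lentivirally expressed fusions sorted by FACS into six bins by GFP to DsRed ratio, PSI derived from sequencing read proportions per bin multiplied by bin number.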
row,Variant,protein stability index
1,CSWKGATKQRQQDQKVPYIFRDNQ [I11Q],3.54
2,CSWKGATKQRYQDQKVPYIFRDNQ [I11Y],2.51
3,CSWKGATKQRSQDQKVPYIFRDNQ [I11S],3.01
4,CSWKGATKQRIQDQKVPYIFRDLQ [N23L],1.89
5,CSWKGATKQRIQDQKVPYIFRDVQ [N23V],1.67
6,CSWKGATKQRIQDQKVPYIFRDKQ [N23K],3.05
7,CSWKGATKQRIQDQKVPYIFRDRQ [N23R],2.82
8,CSWKGATKQRIQDQKVPYIFRDYQ [N23Y],2.11
9,CSWKGATKQRIQDQKVPYIFRDHQ [N23H],1.99
10,CSWKGATKQRIQDQKVPYIFRDIQ [N23I],2.56
11,CSWKGAKKQRIQDQKVPYIFRDNQ [T7K],2.4
12,CSWKGAVKQRIQDQKVPYIFRDNQ [T7V],2.42
13,CSWKGARKQRIQDQKVPYIFRDNQ [T7R],2.75
14,CSWKGAHKQRIQDQKVPYIFRDNQ [T7H],2.91
15,CSWKGADKQRIQDQKVPYIFRDNQ [T7D],3.29
16,CSWKGAPKQRIQDQKVPYIFRDNQ [T7P],2.74
17,CSWKGANKQRIQDQKVPYIFRDNQ [T7N],2.62
18,CSWKGATKQRIQDQKVPYIFRDNG [Q24G],2.18
19,CSWKGATKQRIQDQKVPYIFRDNS [Q24S],2.82
20,CSWKGATKQRIQDQKVPYIFRDNI [Q24I],2.85
21,CSWKGATKQRIQDQKVPYIFRDNV [Q24V],2.16
22,CSWKGATKQRIQDQKVPYIFRDNM [Q24M],1.92
23,CSWKGATKQRIQDQKVPYIFRDNY [Q24Y],1.61
24,CSWKGATKQRIQDQKVPYIFRDNH [Q24H],2.06

row,Variant,protein stability index
1,CSWKGATKQRIQDQKVPYIFRDNA [Q24A],2.29
2,CSWKGATKQRIQDQKVPYIMRDNQ [F20M],3.53
3,CSWKGATKQRIQDQKVPYIRRDNQ [F20R],3.08
4,CSWKGATKQRIQDQKVPYIERDNQ [F20E],3.99
5,CSWKGATKQRIQDQKVPYINRDNQ [F20N],2.93
6,CSWKGATKQRIQDQKVPYIYRDNQ [F20Y],2.74
7,CSWKGATKQRIQDQKVPYILRDNQ [F20L],3.47
8,CSWKGATKQRIQDQKVPYITRDNQ [F20T],3.71
9,CSWKGATKQRIQDQKVPYIHRDNQ [F20H],3.29
10,CSWKGATKQRIQDQKVPYIVRDNQ [F20V],3.09
11,CSWYGATKQRIQDQKVPYIFRDNQ [K4Y],2.2
12,CSWFGATKQRIQDQKVPYIFRDNQ [K4F],1.26
13,CSWHGATKQRIQDQKVPYIFRDNQ [K4H],3.06
14,CSWIGATKQRIQDQKVPYIFRDNQ [K4I],2.04
15,CSWPGATKQRIQDQKVPYIFRDNQ [K4P],3.33
16,CSWEGATKQRIQDQKVPYIFRDNQ [K4E],2.43
17,CSWTGATKQRIQDQKVPYIFRDNQ [K4T],2.49
18,CSWVGATKQRIQDQKVPYIFRDNQ [K4V],1.94
19,CSWKMATKQRIQDQKVPYIFRDNQ [G5M],2.02
20,CSWKTATKQRIQDQKVPYIFRDNQ [G5T],2.53
21,CSWKCATKQRIQDQKVPYIFRDNQ [G5C],1.57
22,CSWKIATKQRIQDQKVPYIFRDNQ [G5I],2.11
23,CSWKYATKQRIQDQKVPYIFRDNQ [G5Y],2.12
24,CSWKRATKQRIQDQKVPYIFRDNQ [G5R],2.38

row,Variant,protein stability index
1,CSWKVATKQRIQDQKVPYIFRDNQ [G5V],2.32
2,CSWKSATKQRIQDQKVPYIFRDNQ [G5S],3.28
3,CSWKEATKQRIQDQKVPYIFRDNQ [G5E],3.34
4,CSWKGATKQRIQDQKVPYLFRDNQ [I19L],2.3
5,CSWKGATKQRIQDQKVPYVFRDNQ [I19V],2.88
6,CSWKGATKQRIQDQKVPYFFRDNQ [I19F],2.08
7,CSWKGATKQRIQDQKVPYWFRDNQ [I19W],2.06
8,CSWKGATKQRIQDQKVPYHFRDNQ [I19H],3.02
9,CSWKGATKQRIQDQKVPYCFRDNQ [I19C],2.35
10,CSWKGATKQRIQDQKVPYYFRDNQ [I19Y],1.95
11,CSWKGATKQRIQDQKVPYMFRDNQ [I19M],3.54
12,CSWKGATKQRIQDQKVPYDFRDNQ [I19D],3.88
13,CSWKGATKQRIQDQKVPYEFRDNQ [I19E],3.31
14,CSWKGATKQRIWDQKVPYIFRDNQ [Q12W],1.12
15,CSWKGATKQRIYDQKVPYIFRDNQ [Q12Y],2.38
16,CSWKGATKQRIADQKVPYIFRDNQ [Q12A],2.67
17,CSWKGATKQRIFDQKVPYIFRDNQ [Q12F],1.69
18,CSWKGATKQRITDQKVPYIFRDNQ [Q12T],2.9
19,CSWKGATKQRIEDQKVPYIFRDNQ [Q12E],2.45
20,CSWKGATKQRINDQKVPYIFRDNQ [Q12N],2.28
21,CSWKGATKQRIQDQKVPYIFTDNQ [R21T],2.99
22,CSWKGATKQRIQDQKVPYIFWDNQ [R21W],1.87
23,CSWKGATKQRIQDQKVPYIFADNQ [R21A],3.06
24,CSWKGATKQRIQDQKVPYIFCDNQ [R21C],2.11

row,Variant,protein stability index
1,CSWKGATKQRIQDQKVPYIFLDNQ [R21L],2.9
2,CSWKGATKQRIQDQKVPYIFRRNQ [D22R],2.66
3,CSWKGATKQRIQDQKVPYIFRHNQ [D22H],1.72
4,CSWKGATKQRIQDQKVPYIFRSNQ [D22S],2.42
5,CSWKGATKQRIQDQKVPYIFRNNQ [D22N],2.42
6,CSWKGATKQRIQDQKVPYIFRKNQ [D22K],2.42
7,CSWKGATKQRIQDQKVPYIFRINQ [D22I],1.57
8,CSWKGATKQRIQDQKVPYIFRGNQ [D22G],3.03
9,CSWKGATKQRIQDQKVPYIFRENQ [D22E],2.44
10,CSWKGGTKQRIQDQKVPYIFRDNQ [A6G],1.82
11,CSWKGLTKQRIQDQKVPYIFRDNQ [A6L],2.43
12,CSWKGCTKQRIQDQKVPYIFRDNQ [A6C],2.06
13,CSWKGPTKQRIQDQKVPYIFRDNQ [A6P],3.05
14,CSWKGRTKQRIQDQKVPYIFRDNQ [A6R],2.73
15,CSWKGMTKQRIQDQKVPYIFRDNQ [A6M],2.64
16,CSWKGDTKQRIQDQKVPYIFRDNQ [A6D],3.47
17,CSWKGWTKQRIQDQKVPYIFRDNQ [A6W],4.23
18,CSWKGATTQRIQDQKVPYIFRDNQ [K8T],2.07
19,CSWKGATMQRIQDQKVPYIFRDNQ [K8M],2.01
20,CSWKGATSQRIQDQKVPYIFRDNQ [K8S],2.44
21,CSWKGATDQRIQDQKVPYIFRDNQ [K8D],2.59
22,CSWKGATPQRIQDQKVPYIFRDNQ [K8P],2.23
